B1: MMP-2 (protein)
chain: YNFFPRKPKWDKNQITYRIIGYTPDLDPETVDDAFARAFQVWSDVTPLRFSRIHDGEADIMINFGRWEHGDGYPFDGKDGLLAHAFAPGTGVGGDSHFDDDELWTLGEGQVVRVKYGNADGEYCKFPFLFNGKEYNSCTDTGRSDGFLWCSTTYNFEKDGKYGFCPHEALFTMGGNAEGQPCKFPFRFQGTSYDSCTTEGRTDGYRWCGTTEDYDRDKKYGFCPETAMSTVGGNSEGAPCVFPFTFLGNKYESCTSAGRSDGKMWCATTANYDDDRKWGFCPDQGYSLFLVAAHEFGHAMGLEHSQDPGALMAPIYTYTKNFRLSQDDIKGIQELYGASPDIDLGTGPTPTLGPVTPEICKQDIVFDGIAQIRGEIFFFKDRFIWRTVTPRDKPMGPLLVATFWPELPEKIDAVYEAPQEEKAVFFAGNEYWIYSASTLERGYPKPLTSLGLPPDVQRVDAAFNWSKNKKTYIFAGDKFWRYNEVKKKMDPGFPKLIADAWNAIPDNLDAVVDLQGGGHSYFFKGAYYLKLENQSLKSVKFGSIKSDWLGC
B2: Cathepsin G (protein)
chain: IIGGRESRPHSRPYMAYLQIQSPAGQSRCGGFLVREDFVLTAAHCWGSNINVTLGAHNIQRRENTQQHITARRAIRHPQYNQRTIQNDIMLLQLSRRVRRNRNVNPVALPRAQEGLRPGTLCTVAGWGRVSMRRGTDTLREVQLRVQRDRQCLRIFGSYDPRRQICVGDRRERKAAFKGDSGGPLLCNNVAHGIVSYGKSSGVPPEVFTRVSSFLPWIRTTMRS
B3: Neutrophil Elastase (protein)
chain: IVGGRRARPHAWPFMVSLQLRGGHFCGATLIAPNFVMSAAHCVANVNVRAVRVVLGAHNLSRREPTRQVFAVQRIFENGYDPVNLLNDIVILQLNGSATINANVQVAQLPAQGRRLGNGVQCLAMGWGLLGRNRGIASVLQELNVTVVTSLCRRSNVCTLVRGRQAGVCFGDSGSPLVCNGLIHGIASFVRGGCASGLYPDAFAPVAQFVNWIDSIIQ

Columns and labels:
[1] = molecular target: AxCT mask27 EGFR EH104 L001 version 1
[2] = molecular target: AxCT mask27 EGFR EH104 L040 version 1
[3] = molecular target: AxCT mask27 EGFR EH104 L041 version 1
[4] = molecular target: AxCT mask27 EGFR EH104 L043 version 1
[5] = molecular target: AxCT mask27 EGFR EH104 L054 version 1
[6] = molecular target: AxCT mask27 EGFR EH104 L055 version 1
[7] = molecular target: AxCT mask27 EGFR EH104 L056 version 1
[8] = molecular target: AxCT mask27 EGFR EH104 L057 version 1
[9] = molecular target: AxCT mask27 EGFR EH104 L058 version 1
[10] = molecular target: AxCT mask27 EGFR EH104 L059 version 1
[11] = molecular target: AxCT mask27 EGFR EH104 L060 version 1
[12] = molecular target: AxCT mask27 EGFR EH104 L061 version 1
[13] = molecular target: AxCT mask27 EGFR EH104 L062 version 1
[14] = molecular target: AxCT mask27 EGFR EH104 L063 version 1
[15] = molecular target: AxCT mask27 EGFR EH104 L064 version 1
[16] = molecular target: AxCT mask27 EGFR EH104 L065 version 1
[17] = molecular target: AxCT mask27 EGFR EH104 L066 version 1
[18] = molecular target: AxCT mask27 EGFR EH104 L067 version 1
[19] = molecular target: AxCT mask27 EGFR EH104 L068 version 1
[20] = molecular target: AxCT mask27 EGFR EH104 L069 version 1
[21] = molecular target: AxCT mask27 EGFR EH104 L070 version 1
[22] = molecular target: AxCT mask27 EGFR EH104 L071 version 1
[23] = molecular target: AxCT mask27 EGFR EH104 L072 version 1
[24] = molecular target: AxCT mask27 EpCAM H90 L001 version 1
[25] = molecular target: AxCT mask27 EpCAM H90.2 L040 version 1
[26] = molecular target: AxCT mask27 EpCAM H90.2 L043 version 1
[27] = molecular target: AxCT mask27 EpCAM H90.2 L059 version 1
[28] = molecular target: AxCT mask27 EpCAM H90.2 L060 version 1
[29] = molecular target: AxCT mask27 EpCAM H90.2 L061 version 1
[30] = molecular target: AxCT mask27 EpCAM H90.2 L063 version 1
[31] = molecular target: AxCT mask27 EpCAM H90.2 L064 version 1
[32] = molecular target: AxCT mask27 EpCAM H90.2 L073 version 1
[33] = molecular target: AxCT mask27 EpCAM H90.2 L075 version 1
[34] = molecular target: AxCT mask27 EpCAM H90.2 L076 version 1
[35] = molecular target: AxCT mask27 EpCAM H90.2 NCLV
[36] = molecular target: AxCT mask27 EGFR EH104 L073 version 1
[37] = molecular target: AxCT mask27 EpCAM H90.2 L041 version 1

Protein | Percent cleavage [1] [%] | Percent cleavage [2] [%] | Percent cleavage [3] [%] | Percent cleavage [4] [%] | Percent cleavage [5] [%] | Percent cleavage [6] [%] | Percent cleavage [7] [%] | Percent cleavage [8] [%] | Percent cleavage [9] [%] | Percent cleavage [10] [%] | Percent cleavage [11] [%] | Percent cleavage [12] [%] | Percent cleavage [13] [%] | Percent cleavage [14] [%] | Percent cleavage [15] [%] | Percent cleavage [16] [%] | Percent cleavage [17] [%] | Percent cleavage [18] [%] | Percent cleavage [19] [%] | Percent cleavage [20] [%] | other results
B1 | 71 | 60 | 51 | 27 | 59 | 35 | 51 | 47 | 62 | 39 | 27 | 43 | 63 | 31 | 63 | 71 | 25 | 34 | 48 | 29 | Percent cleavage [21]: 22%; Percent cleavage [22]: 39%; Percent cleavage [23]: 73%; Percent cleavage [24]: 104%; Percent cleavage [25]: 90%; Percent cleavage [26]: 39%; Percent cleavage [27]: 55%; Percent cleavage [28]: 40%; Percent cleavage [29]: 74%; Percent cleavage [30]: 36%; Percent cleavage [31]: 79%; Percent cleavage [32]: 17%; Percent cleavage [33]: 0%; Percent cleavage [34]: 35%; Percent cleavage [35]: 0%
B2 | 0 | 0 | 0 | 0 | 0 | 0 | 0 | 0 | 0 | 8 | 0 | 0 | 0 | 0 | 0 | 0 | 0 | 0 | 0 | 12 | Percent cleavage [21]: 0%; Percent cleavage [22]: 0%; Percent cleavage [23]: 0%; Percent cleavage [36]: 0%; Percent cleavage [24]: 0%; Percent cleavage [25]: 0%; Percent cleavage [37]: 0%; Percent cleavage [26]: 0%; Percent cleavage [27]: 6%; Percent cleavage [28]: 0%; Percent cleavage [29]: 0%; Percent cleavage [30]: 0%; Percent cleavage [31]: 0%; Percent cleavage [32]: 0%; Percent cleavage [33]: 8%; Percent cleavage [34]: 0%; Percent cleavage [35]: 0%
B3 | 34 | 13 | 0 | 7 | 23 | 9 | 14 | 28 | 9 | 15 | 10 | 19 | 8 | 9 | 30 | 10 | 9 | 32 | 19 | 22 | Percent cleavage [21]: 11%; Percent cleavage [22]: 26%; Percent cleavage [23]: 10%; Percent cleavage [36]: 9%; Percent cleavage [24]: 44%; Percent cleavage [25]: 9%; Percent cleavage [37]: 0%; Percent cleavage [26]: 0%; Percent cleavage [27]: 14%; Percent cleavage [28]: 7%; Percent cleavage [29]: 14%; Percent cleavage [30]: 0%; Percent cleavage [31]: 32%; Percent cleavage [32]: 10%; Percent cleavage [33]: 0%; Percent cleavage [34]: 6%; Percent cleavage [35]: 0%
